Test results: paper PMC5824887, “A family of unconventional deubiquitinases with modular chain specificity determinants” (Nature Communications, 2018)

B1: ZUFSP^232-578 (domain or fragment, human, UniProt Q96AP4 232-578, looked up)
chain: GDLQLAHQLQQEEDRKRRSEESRQEIEEFQKLQRQYGLDNSGGYKQQQLRNMEIEVNRGRMPPSEFHRRKADMMESLALGFDDGKTKTSGIIEALHRYYQNAATDVRRVWLSSVVDHFHSSLGDKGWGCGYRNFQMLLSSLLQNDAYNDCLKGMLIPCIPKIQSMIEDAWKEGFDPQGASQLNNRLQGTKAWIGACEVYILLTSLRVKCHIVDFHKSTGPLGTHPRLFEWILNYYSSEGEGSPKVVCTSKPPIYLQHQGHSRTVIGIEEKKNRTLCLLILDPGCPSREMQKLLKQDIEASSLKQLRKSMGNLKHKQYQILAVEGALSLEEKLARRQASQVFTAEKIP
notes: In the crystal the catalytic Cys-360 is covalently coupled to Ub-PA; also called the construct used for crystallization; source: E. coli Rosetta (DE3)pLysS, purified (HisTrap, tag removal with Senp1, SEC); not shown: His6, N-terminal, cleaved; Smt3, N-terminal, cleaved
B2: Mug105 from the fission yeast Schizosaccharomyces pombe (enzyme, S. pombe, UniProt O13979 1-244, looked up)
chain: MSKCLQQLKRQLQHFGIDGCSLADGDIDYFFTVTGIDRGWGCGWRNIQMLISWLQYTNPNWFKRNFSSGNYEINSLQSLLLSAWMKGIDAEGYAQLGDNLHGKWIGATEVYSLFTGLFVNVALVDFDFRSEASASNALFLYVKKHFESSNDTSNVSPCYLQFQGHSIIIIGFCSSLETLVVLDPDRYQSVQKKFVNIADFNHCYMRKKRSLKFSQFQLVHFKQNIFLNDFSSKLEVRSTRISDF
notes: Mug105, S. pombe, cloned from genomic DNA; consists only of the core catalytic domain; source: E. coli Rosetta (DE3)pLysS, purified (HisTrap, tag removal with Senp1, SEC); not shown: His6, N-terminal, cleaved; Smt3, N-terminal, cleaved
B3: human ZUFSP, full length, bacterially expressed (enzyme, UniProt Q96AP4 1-578, looked up)
chain: MLSCNICGETVTSEPDMKAHLIVHMESEIICPFCKLSGVNYDEMCFHIETAHFEQNTLERNFERINTVQYGTSDNKKDNTLQCGMEVNSSILSGCASNHPKNSAQNLTKDSTLKHEGFYSENLTESRKFLKSREKQSSLTEIKGSVYETTYSPPECPFCGKIEEHSEDMETHVKTKHANLLDIPLEDCDQPLYDCPMCGLICTNYHILQEHVDLHLEENSFQQGMDRVQCSGDLQLAHQLQQEEDRKRRSEESRQEIEEFQKLQRQYGLDNSGGYKQQQLRNMEIEVNRGRMPPSEFHRRKADMMESLALGFDDGKTKTSGIIEALHRYYQNAATDVRRVWLSSVVDHFHSSLGDKGWGCGYRNFQMLLSSLLQNDAYNDCLKGMLIPCIPKIQSMIEDAWKEGFDPQGASQLNNRLQGTKAWIGACEVYILLTSLRVKCHIVDFHKSTGPLGTHPRLFEWILNYYSSEGEGSPKVVCTSKPPIYLQHQGHSRTVIGIEEKKNRTLCLLILDPGCPSREMQKLLKQDIEASSLKQLRKSMGNLKHKQYQILAVEGALSLEEKLARRQASQVFTAEKIP
notes: Zn-finger and UFSP domain protein (ZUFSP), human, cloned from HEK293 cDNA; also called ZUP1; C6orf113; source: E. coli Rosetta (DE3)pLysS, purified (HisTrap, tag removal with Senp1, SEC); not shown: His6, N-terminal, cleaved; Smt3, N-terminal, cleaved

Assays:
[1] = biological target: T1, propargylated ubiquitin (Ub-PA) (UniProt P0CG48 1-75, propargylamine coupled to the C-terminus of ubiquitin 1-75); experiment: crystal structure; covalent complex of ZUFSP^232-578 and Ub-PA (100 µM + 200 µM, 18 h, 4 °C, SEC); crystals from 0.2 M sodium malonate pH 5, 20% PEG 3350, 4 °C; conditions: both partners purified
[2] = biological target: T1, propargylated ubiquitin (Ub-PA); experiment: suicide probe reaction (covalent adduct, SDS-PAGE, Coomassie); DUB prediluted to 10 µM, combined 1:1 with 100 µM probe in 20 mM TRIS pH 7, 150 mM NaCl, 10 mM DTT; 16 h at 4 °C; shifted band on Coomassie-stained gel; conditions: both partners purified

Binder	binding result [1]	binding result [2]
B1	binds	
B2		binds
B3		binds
